Results from US20090099093A1 (Stanford University, published 2009).
No end group written: not given here.

B1: RA peptide (RADSRADC) (peptide)
peptide: RADSRADC
B2: PLG-OH (peptide)
peptide: Pro-Leu-Gly-OH
B3: SF peptide (SFLLRN) (peptide)
peptide: SFLLRN

Biological target: Mushroom tyrosinase (mushroom, UniProt C7FF04 1-392)
Experiment: cell-based or functional assay

Sequence of Mushroom tyrosinase (C7FF04 1-392): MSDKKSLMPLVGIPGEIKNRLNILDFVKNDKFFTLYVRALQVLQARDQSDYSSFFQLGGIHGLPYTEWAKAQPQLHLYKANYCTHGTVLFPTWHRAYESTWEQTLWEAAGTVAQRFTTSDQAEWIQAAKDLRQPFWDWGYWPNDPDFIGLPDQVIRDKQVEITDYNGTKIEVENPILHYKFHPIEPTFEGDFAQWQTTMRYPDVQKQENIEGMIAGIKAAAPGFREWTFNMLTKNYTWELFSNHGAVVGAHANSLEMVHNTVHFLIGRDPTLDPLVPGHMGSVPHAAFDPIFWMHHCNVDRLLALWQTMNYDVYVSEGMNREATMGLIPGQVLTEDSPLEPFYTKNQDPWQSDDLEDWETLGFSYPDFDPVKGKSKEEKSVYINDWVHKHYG

Binder	IC50 (inhibition of mushroom tyrosinase activity, dopachrome at 475 nm, L-tyrosine substrate)
B1	0.123 mM
B2	2.73 mM
B3	8 mM
